Test system: MS2 coat protein
Assay: apparent KD of MS2 coat protein; designed switch direction (-1 OFF switch, 1 ON switch): 1; higher = weaker reporter binding
Outline: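 Apparent KD, taken as the median over clusters for each design, was obtained by curve-fitting normalised cluster fluorescence. Designed RNA switches had been transcribed on Illumina chips by stalled E. coli RNA polymerase and titrated with SNAP-549-labelled MS2 coat protein, doubling from 0.7 or 1.5 nM to 3 µM.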

[1] = Eterna round: R95, input ligand: FMN 200 uM
[2] = Eterna round: R95, input ligand: microRNA oligo, concentration not stated
[3] = Eterna round: R95, input ligand: none
[4] = input ligand: microRNA oligo, concentration not stated

Sequence | apparent KD of MS2 coat protein [1] | apparent KD of MS2 coat protein [2] | apparent KD of MS2 coat protein [3] | apparent KD of MS2 coat protein (input ligand: FMN 200 uM) | apparent KD of MS2 coat protein [4] | apparent KD of MS2 coat protein (input ligand: none)
GGCAGGUGCAGGCUUGCUUGCACCUGGAAACAUGAGGAUCACCCAUGUUUGGGACAAGCUUUGCUCUUCGUUUUGUC [JL ViennaUCT Isusreraar mod 4] (puzzle: Sensor for hsa-mir-208a) | 0.0353 µM | 0.0404 µM | 0.047 µM | – | – | –
GGCCAGAGUCAAGGAUAUGCUACCGUUUCGGUAGCAGAAGGUGAUCACAUGAGGAUCACCCAUGUAUACGCUGGAAAGCGGGCC [JL SSNG1 3.64] (Eterna round: R96, puzzle: Same State NG 1) | – | – | – | 0.452 µM | 0.48 µM | 1.43 µM
GGCCGGCCGAACGGAGGGCCACAUGAGGAUCACCCAUGUACAUAGGAUAUCAUGUCAACGAGGCAUGAGAAGGGUGAUUAAAGC [Orenriaran] (Eterna round: R96, puzzle: Same State NG 3) | – | – | – | 0.065 µM | 0.0729 µM | 0.0577 µM
GGCGAACAGGCCGACAUGAGGAUCACCCAUGUGGCCUCAUGUCAGGAUAUCGGGAAGGAGGAAACCGAGAAGGGACGGUGAGCC [AK SSNG3-V2-44] (Eterna round: R96, puzzle: Same State NG 3) | – | – | – | 0.0889 µM | 0.0056 µM | 0.0651 µM
GGCGAACAGGCUAACAUGAGGAUCACCCAUGUGGACUCAUGUUAGGAUAUCGGGAAGGAGGAAACCGAGAAGGGACGGUGAGCU [AK SSNG3-V2-45] (Eterna round: R96, puzzle: Same State NG 3) | – | – | – | 0.191 µM | 0.018 µM | 0.0341 µM
GGCGAACAGGCUAACAUGAGGAUCACCCAUGUGGACUUCGUGUAGGAUAUCGGGAAGGAGGAAACCGAGAAGGGCAAAGAAGCC [AK SSNG3-V2-49] (Eterna round: R96, puzzle: Same State NG 3) | – | – | – | 0.195 µM | 0.0882 µM | 0.0937 µM
GGCGCGGUCUCGCAGGAUAUCCACAAUCCUACAUGAGGAUCACCCAUGUCGCUGCAGGAUAUUAGGGAGAAGGGUGAUGCCGCGG [Bereri] (puzzle: Same State 2) | 0.02 µM | 0.0304 µM | 0.0416 µM | – | – | –
GGCGUCUGUCAAGGAUAUGCUACCGUUUCGGUAGCAGAAGGUGAUCACAUGAGGAUCACCCAUGUUUAGGCCAACAGGCCCGCC (Eterna round: R96, puzzle: Same State NG 1) | – | – | – | 1.27 µM | 0.222 µM | 1.41 µM
GGUAAACAUGAGGAUCACCCAUGUAAUAAUAUGGGAGGAUAUGGGAAUUAAUUAAUUAAACCAGAAGGCCUAAUGU [Mat - Same State 1 - D87] (puzzle: Same State 1) | 0.0531 µM | 0.536 µM | 0.519 µM | – | – | –
GGUAAGAAUUAAGGAUAUCGAGUACAUAUGUUUAACAUGAGGAUCACCCAUGUGGGUUGCGGUAUCGAGAAGGUAAAAUAUAAG [Mat - same State NG 2 - JL mod - D64] (Eterna round: R96, puzzle: Same State NG 2) | – | – | – | 0.0518 µM | 0.0264 µM | 0.0757 µM
GGUACACAUGAGGAUCACCCAUGUCGUAUGACAUGAGGAUAUGUACAGACUUCGGUCUGUACAGAAGGCAUGUGUC [SS1 - 1011 Omei Mod 4] (puzzle: Same State 1) | – | 0.0245 µM | – | – | – | –
GGUACCAACACAGGAUAUGCUAUCCUUUGGGUAGCAGAAGGGUGAAACAUGAGGAUCACCCAUGUGGUGCCAGGGCGUGAGCCC [JL SSNG1 1.93] (Eterna round: R96, puzzle: Same State NG 1) | – | – | – | 0.108 µM | 0.854 µM | 2.19 µM
GGUAGGUUACUACCAAACAUGAGGAUCACCCAUGUAAAUGGGAAGGAUAUGGUACCGUUUCGGUACCAGAAGGUCCAAAAUAUU [JL Fiskers NG3ss - 2 final mod] (Eterna round: R96, puzzle: Same State NG 3) | – | – | – | 0.418 µM | 0.356 µM | 1.52 µM
GGUAGGUUACUACCAACACAUGAGGAUCACCCAUGUUUUCAUGAGGAUAUGGUACCUAUUUGGUACCAGAAGGCAUGGUUAAUU [Fiskers NG3ss - 18] (Eterna round: R96, puzzle: Same State NG 3) | – | – | – | 0.0486 µM | 0.0768 µM | 0.104 µM
GGUAGGUUACUACCAAUCUACAUGAGGAUCACCCAUGUGUGGAAGGAUAUGGUACCUAUUUGGUACCAGAAGGUCCAAUUAAUU [Fiskers NG3ss - 7] (Eterna round: R96, puzzle: Same State NG 3) | – | – | – | 0.179 µM | 0.0647 µM | 0.153 µM
GGUAGGUUACUACCAGACAUGAGGAUCACCCAUGUAAGUGGGAAGGAUAUGGUACCGUUUCGGUACCAGAAGGUCCUAAAUGAG [JL SSNG3 1.46] (Eterna round: R96, puzzle: Same State NG 3) | – | – | – | 0.332 µM | 1.65 µM | 1.22 µM
GGUAGGUUACUACCAGACAUGAGGAUCACCCAUGUAAGUGGGAAGGAUAUGGUACCUUUUAGGUACCAGAAGGUCCAUAUAUUC [JL SSNG3 1.44] (Eterna round: R96, puzzle: Same State NG 3) | – | – | – | 0.178 µM | 0.637 µM | 0.849 µM
GGUAUCGACACAGGAUAUGCUAUCCUUUGGGUAGCAGAAGGGUGGACAUGAGGAUCACCCAUGUGGGUGCCAGGGCGUGAGCCC [JL SSNG1 1.84] (Eterna round: R96, puzzle: Same State NG 1) | – | – | – | 0.234 µM | 0.0211 µM | 1.04 µM
GGUAUCGACGCAGGAUAUGCUAUCCUUUGGGUAGCAGAAGGGUGGACAUGAGGAUCACCCAUGUGGGUGCCAGGGCGUGAGCCC [JL SSNG1 1.83] (Eterna round: R96, puzzle: Same State NG 1) | – | – | – | 0.283 µM | 0.0128 µM | 0.44 µM
GGUCCAGCCUGAGCUGGACAAAAGCAUGUACAUGAGGAUCACCCAUGUCAUGUACAAGCUUUUUGCUCGUCUAAAUG [Mat - hsa-mir-208a - 93] (puzzle: Sensor for hsa-mir-208a) | 0.802 µM | 0.0217 µM | 0.758 µM | – | – | –
GGUCCAGCCUGAGCUGGACAAAAGCAUGUACAUGAGGAUCACCCAUGUCAUGUACAAGCUUUUUGCUCGUCUUAAAA [Mat - Sensor - JL mod - D87] (Eterna round: R96, puzzle: Sensor for hsa-mir-208a) | – | – | – | 0.586 µM | 0.0142 µM | 0.573 µM
GGUCCAGCCUGAGCUGGACAAAAGCAUGUACAUGAGGAUCACCCAUGUCAUGUACAAGCUUUUUGUUCGUCUUAAAA [JL mod - D87 - 13] (puzzle: Sensor for hsa-mir-208a) | 0.42 µM | 0.0156 µM | 0.344 µM | – | – | –
GGUCCAGCCUGAGCUGGACUAUAGCAUGUACAUGAGGAUCACCCAUGUCAUGUACAAGUAUGUUGUUUGUCUUGAAA [Sensorship 6 - Jieux - Sensor for hsa-mir-208a] (puzzle: Sensor for hsa-mir-208a) | 0.0214 µM | 0.0153 µM | 0.0202 µM | – | – | –
GGUCCAGCCUGAGCUGGACUAUAGUAUGUACAUGAGGAUCACCCAUGUCAUGUACAAGUAUGUUGUUUGUCUUGAAA [Sensorship 5 - Jieux - Sensor for hsa-mir-208a] (puzzle: Sensor for hsa-mir-208a) | 0.0723 µM | 0.0654 µM | 0.103 µM | – | – | –
GGUGGGUUACUACCCACACAUGAGGAUCACCCAUGUAUUGGGAAGGAUAUGGUACCUAUUUGGUACCAGAAGGUCCUGAAGGUG [SS-NG3-LRO16] (Eterna round: R96, puzzle: Same State NG 3) | – | – | – | 0.638 µM | 0.545 µM | 1.17 µM
GGUUUAGCCAGGCGCAAUUGCGCCUGAAAACAUGAGGAUCACCCAUGUUUGGGACAAGCUUUGCUCCUCGUCUUGCA [Edreisza] (puzzle: Sensor for hsa-mir-208a) | 0.243 µM | 0.0419 µM | 0.33 µM | – | – | –
GUAAAACAUGAGGAUCACCCAUGUAAUAAUAUGGGAGGAUAUCAGAUUUAAUUUAAUUUAUGAGAAGGCCUAAAUG [Mat - Same State 1 - Mod of Eli - D59] (puzzle: Same State 1) | 0.0574 µM | 0.181 µM | 0.427 µM | – | – | –
